Experiment [1] deals with MSLN expressed on the cell surface of human cancer cell lines N87 and H226 (human, UniProt Q13421 37-598). Kind of experiment: cell-based or functional assay.
Experiment [2] concerns the target T1, mesothelin (MSLN) (UniProt Q13421 296-580).
T1 construct: also called immobilized MSLN
Put plainly: ELISA, MSLN coated on plate, IgG1 detected with anti-human IgG HRP. On the technique in general: In an ELISA, binding on a coated surface is turned into a signal by an enzyme label.

The target of experiment [3] is T1, mesothelin (MSLN). Kind of experiment: ELISA, MSLN coated on plate, IgG1-vcMMAE detected with anti-human IgG HRP.

T1 sequence (Q13421 other isoform, or with tags, fused parts or gaps limits assumed): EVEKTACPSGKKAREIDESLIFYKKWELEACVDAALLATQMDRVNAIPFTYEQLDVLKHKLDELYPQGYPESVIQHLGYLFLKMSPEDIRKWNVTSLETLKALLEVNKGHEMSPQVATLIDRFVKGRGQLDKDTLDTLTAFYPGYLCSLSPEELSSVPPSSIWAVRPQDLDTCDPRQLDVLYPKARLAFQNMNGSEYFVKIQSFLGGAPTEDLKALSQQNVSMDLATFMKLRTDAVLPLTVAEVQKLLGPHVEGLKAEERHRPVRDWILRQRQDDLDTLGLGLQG

B1: CHS5 IgG (antibody, V domains shown)
VH: EVQLVESGGGLVQPGGSLRLSCAASGFTITDRTIHWVRQAPGKGLEWVASIFPTKGVTTYADSVKGRFTISADTSKNTAYLQMNSLRAEDTAVYYCARGRYWMDYWGQGTLVTVSS
VL: DIQMTQSPSSLSASVGDRVTITCRASQDVKEGVAWYQQKPGKAPKLLIDQSHRLYSGVPSRFSGSGSGTDFTLTISSLQPEDFATYYCQQYYAWPSTFGQGTKVEIKR
notes: also called IgG1-CHS5
One may read the EC50 as the concentration that produces a half-maximal response. Lower therefore signals higher potency in that assay. Consider B1, for which, in experiment [1], the “IgG1-AL1-PE38KDEL IC50 (nM), cell viability of N87 cells” value (from here on “IgG1-AL1-PE38KDEL IC50 (nM)”) is 0.06 nM. The same molecule yielded an EC50 in the experiment with mesothelin (MSLN) [2] of 4.67 ng/mL.

B2: CHS8 IgG (antibody, V domains shown)
VH: EVQLVESGGGLVQPGGSLRLSCAASGFTISKASIHWVRQAPGKGLEWVASIWPTKGFTTYADSVKGRFTISADTSKNTAYLQMNSLRAEDTAVYYCARGRYWLDYWGQGTLVTVSS
VL: DIQMTQSPSSLSASVGDRVTITCRASQDVKEGVAWYQQKPGKAPKLLIDERERLYSGVPSRFSGSGSGTDFTLTISSLQPEDFATYYCQQYNTWPATFGQGTKVEIKR
Turning to B2, the “IgG1-AL1-PE38KDEL IC50 (nM)” value in experiment [1] was found to be 0.01 nM. For the same molecule, the EC50 with mesothelin (MSLN) [2] worked out at 5.05 ng/mL.

B3: CHS7 IgG (antibody, V domains shown)
VH: EVQLVESGGGLVQPGGSLRLSCAASGFTIDKEAIHWVRQAPGKGLEWVASIYPHSGFTLYADSVKGRFTISADTSKNTAYLQMNSLRAEDTAVYYCARGRYWMDYWGQGTLVTVSS
VL: DIQMTQSPSSLSASVGDRVTITCRASQDVEDGVAWYQQKPGKAPKLLIGIKDLLYSGVPSRFSGSGSGTDFTLTISSLQPEDFATYYCQQYYRWPSTFGQGTKVEIKR
In the case of B3, in experiment [1], the “IgG1-AL1-PE38KDEL IC50 (nM)” value was 0.06 nM. The molecule also gave an EC50 with mesothelin (MSLN) [2] of 10.3 ng/mL.

B4: CHS5-vcMMAE (antibody, V domains shown)
VH: EVQLVESGGGLVQPGGSLRLSCAASGFTITDRTIHWVRQAPGKGLEWVASIFPTKGVTTYADSVKGRFTISADTSKNTAYLQMNSLRAEDTAVYYCARGRYWMDYWGQGTLVTVSS
VL: DIQMTQSPSSLSASVGDRVTITCRASQDVKEGVAWYQQKPGKAPKLLIDQSHRLYSGVPSRFSGSGSGTDFTLTISSLQPEDFATYYCQQYYAWPSTFGQGTKVEIKR
notes: also called CHS5 IgG1-vcMMAE
Turning to B4, the “IgG1-vcMMAE IC50 (nM), cell viability of N87 cells” value (“IgG1-vcMMAE IC50 (nM)” below) in experiment [1] came out at 15 nM. This molecule also yielded an EC50 with mesothelin (MSLN) [3] of 9.56 ng/mL.

B5: ALA12 IgG (antibody, V domains shown)
VH: EVQLVESGGGLVQPGGSLRLSCAASGFTIGNWTIHWVRQAPGKGLEWVALIWPESGATLYADSVKGRFTISADTSKNTAYLQMNSLRAEDTAVYYCARGRYWMDYWGQGTLVTVSS
VL: DIQMTQSPSSLSASVGDRVTITCRASQDVRDGVAWYQQKPGKAPKLLIDQMVRLYSGVPSRFSGSGSGTDFTLTISSLQPEDFATYYCQQYFNWPVTFGQGTKVEIKR
With B5, the “IgG1-AL1-PE38KDEL IC50 (nM)” value in experiment [1] is 0.1 nM. The same molecule had an EC50 with mesothelin (MSLN) [2] of 8.37 ng/mL.

B6: CHS7-vcMMAE (antibody, V domains shown)
VH: EVQLVESGGGLVQPGGSLRLSCAASGFTIDKEAIHWVRQAPGKGLEWVASIYPHSGFTLYADSVKGRFTISADTSKNTAYLQMNSLRAEDTAVYYCARGRYWMDYWGQGTLVTVSS
VL: DIQMTQSPSSLSASVGDRVTITCRASQDVEDGVAWYQQKPGKAPKLLIGIKDLLYSGVPSRFSGSGSGTDFTLTISSLQPEDFATYYCQQYYRWPSTFGQGTKVEIKR
notes: also called CHS7 IgG1-vcMMAE
As for B6, in experiment [1], the “IgG1-vcMMAE IC50 (nM)” value worked out at 25.9 nM. Moreover, in the experiment with mesothelin (MSLN) [3], it took 16.3 ng/mL to reach a half-maximal effect (EC50).

B7: CHS8-vcMMAE (antibody, V domains shown)
VH: EVQLVESGGGLVQPGGSLRLSCAASGFTISKASIHWVRQAPGKGLEWVASIWPTKGFTTYADSVKGRFTISADTSKNTAYLQMNSLRAEDTAVYYCARGRYWLDYWGQGTLVTVSS
VL: DIQMTQSPSSLSASVGDRVTITCRASQDVKEGVAWYQQKPGKAPKLLIDERERLYSGVPSRFSGSGSGTDFTLTISSLQPEDFATYYCQQYNTWPATFGQGTKVEIKR
notes: also called CHS8 IgG1-vcMMAE
B7: the “IgG1-vcMMAE IC50 (nM)” value in experiment [1] is 24.6 nM. For the same molecule, the EC50 with mesothelin (MSLN) [3] turned out to be 9.26 ng/mL.

B8: ALA12-vcMMAE (antibody, V domains shown)
VH: EVQLVESGGGLVQPGGSLRLSCAASGFTIGNWTIHWVRQAPGKGLEWVALIWPESGATLYADSVKGRFTISADTSKNTAYLQMNSLRAEDTAVYYCARGRYWMDYWGQGTLVTVSS
VL: DIQMTQSPSSLSASVGDRVTITCRASQDVRDGVAWYQQKPGKAPKLLIDQMVRLYSGVPSRFSGSGSGTDFTLTISSLQPEDFATYYCQQYFNWPVTFGQGTKVEIKR
notes: also called ALA12 IgG1-vcMMAE
With B8, the “IgG1-vcMMAE IC50 (nM)” value in experiment [1] came to 39.9 nM. In the experiment with mesothelin (MSLN) [3], this molecule gave an EC50 of 10.5 ng/mL.

The record behind these values is patent publication US20240277865A1 (ACADEMIA SINICA, published 2024).
